The record followed here is FireProtDB (doi:10.1021/bi00213a031).

Several values for one entry are separate records, joined by “and”; a condition that tells them apart may be missing. Identical values can stand only once.

For the series the following is noted: Escherichia coli (strain K12), pH 7.8, 25 °C, Urea, phosphate 58 mM, transition: 3, whole UniProt chain shown.

B1: Tryptophan synthase alpha chain wild type, P0A877 (protein)
chain: MERYESLFAQLKERKEGAFVPFVTLGDPGIEQSLKIIDTLIEAGADALELGIPFSDPLADGPTIQNATLRAFAAGVTPAQCFEMLALIRQKHPTIPIGLLMYANLVFNKGIDEFYAQCEKVGVDSVLVADVPVEESAPFRQAALRHNVAPIFICPPNADDDLLRQIASYGRGYTYLLSRAGVTGAENRAALPLNHLVAKLKEYNAAPPLQGFGISAPDQVKAAIDAGAAGAISGSAIVKIIEQHINEPEKMLAALKVFVQPMKAATRS
For the protein B1, under “Absorbance”, the denaturant m value is 2.8 kcal/mol/M and 1.3 kcal/mol/M; the “denaturant midpoint (higher = more stable)” value is 2.5 M and 3.9 M; the unfolding free energy was 6.8 kcal/mol and 5.1 kcal/mol. Where the note is “CD”, the denaturant m value is 2.5 kcal/mol/M and 1.2 kcal/mol/M; the “denaturant midpoint (higher = more stable)” value is 2.5 M and 4 M; the unfolding free energy was 6.2 kcal/mol and 4.6 kcal/mol.
